Experimental findings from paper PMC12088422 (Proceedings of the National Academy of Sciences of the …, 2025) are described below.

The data set concerns the molecule itself. The data set is described as follows: SEC-MALS. Background: In gel filtration, larger molecules generally elute earlier.

B1: Pseudomonas aeruginosa PAO1 glutamyl-tRNA synthetase (enzyme, UniProt Q9XCL6 1-494, looked up)
chain: MTTVRTRIAPSPTGDPHVGTAYIALFNLCFARQHGGQFILRIEDTDQLRSTRESEQQIYDALRWLGIEWDEGPDVGGPHGPYRQSERGHIYKKYSDELVEKGHAFTCFCTPERLDAVRAEQMARKETPRYDGHCMHLPKDEVQRRLAAGESHVTRMKVPTEGVCVVPDMLRGDVEIPWDRMDMQVLMKADGLPTYFLANVVDDHLMGITHVLRGEEWLPSAPKLIKLYEYFGWEQPQLCYMPLLRNPDKSKLSKRKNPTSITFYERMGYLPQALLNYLGRMGWSMPDEREKFTLAEMIEHFDLSRVSLGGPIFDLEKLSWLNGQWIREQSVEEFAREVQKWALNPEYLMKIAPHVQGRVENFSQIAPLAGFFFSGGVPLDASLFEHKKLDPTQVRQVLQLVLWKLESLRQWEKERITGCIQAVAEHLQLKLRDVMPLMFPAITGHASSVSVLDAMEILGADLSRYRLRQALELLGGASKKETKEWEKIRDAIPG
Turning to B1, the “stoichiometry N” value was determined as 2.

One may read the stoichiometry N as the number of molecules, sites or subunits per partner or assembly.
